Source: doi:10.1101/2025.07.12.664526 (bioRxiv, 2025)
Positions count from the first letter of the chain named. Names may count otherwise.

Assays:
[1] = target: WalR, wild type, full-length, C-terminal 6xHis, phosphorylated by PknB^CYTO with ATP (S. aureus ATCC29213) (UniProt Q7A8E1); assay: SEC-MALS
[2] = target: WalR T101M fused to SmBIT or LgBIT (split luciferase) (S. aureus ATCC29213) (UniProt Q7A8E1); assay: split reporter
[3] = target: T1, WalR wild type fused to SmBIT or LgBIT (split luciferase) (S. aureus ATCC29213, UniProt Q7A8E1 1-233); assay: split reporter
T1 sequence (looked up): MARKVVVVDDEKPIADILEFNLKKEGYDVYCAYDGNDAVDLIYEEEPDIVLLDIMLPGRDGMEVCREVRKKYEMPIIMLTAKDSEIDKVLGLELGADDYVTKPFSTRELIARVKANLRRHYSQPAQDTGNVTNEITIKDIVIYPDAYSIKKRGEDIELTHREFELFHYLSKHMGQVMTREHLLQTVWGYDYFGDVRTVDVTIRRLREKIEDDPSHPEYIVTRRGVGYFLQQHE

split reporter = target: the molecule itself; assay: split reporter

In the case of “WalR, wild type, full-length, C-terminal 6xHis, phosphorylated by PknB^CYTO with ATP (from UniProt Q7A8E1 1-233) (natural protein)”, the stoichiometry N [1] is reported as 2.

With “WalR T101M fused to SmBIT or LgBIT (split luciferase) (from UniProt Q7A8E1 1-233) (natural protein)” the peak luciferase signal in the wild type background [2] was 4340 RLU, the peak luciferase signal in the ΔpknB background [2] was 3650 RLU and the percent decrease of peak luciferase signal area against wild type WalR/WalR [2] was 65.2%.

B1: WalR T101M fused to SmBIT or LgBIT (split luciferase) (natural protein, S. aureus ATCC29213, UniProt Q7A8E1 1-233, looked up)
chain: T1 sequence (looked up) with T101M
With B1 the “percent decrease of peak area against wild type WalR/WalR” value [3] was 56.5%.

B2: WalR T101A fused to SmBIT or LgBIT (split luciferase) (natural protein, S. aureus ATCC29213, UniProt Q7A8E1 1-233, looked up)
chain: T1 sequence (looked up) with T101A
For B2, the “percent decrease of peak area against wild type WalR/WalR” value (split reporter) was 56.7%.

B3: WalR T101S fused to SmBIT or LgBIT (split luciferase) (natural protein, S. aureus ATCC29213, UniProt Q7A8E1 1-233, looked up)
chain: T1 sequence (looked up) with T101S
In the case of B3, the “percent decrease of peak area against wild type WalR/WalR” value (split reporter) is reported as 52.4%.
